Assay results published in publication PMC9785946, “Bioorthogonal Chemistry Approach for the Theranostics of GRPR-Expressing Cancers” (Pharmaceutics, 2022).
“And” between values parts separate entries of the source, which are not always exact repeats. Identical values can stand only once. Like-named read-outs stand apart in the source and are kept apart here.

Tests used:
[1] = Experimental: The octanol–water partition coefficients (Po/w) of the radioconjugates (20 µL, typically 1 to 5 MBq) were determined by the “shake-flask” method, as previously described.
[2] = test system: PC3 cells; test: Cellular uptake, internalization and blocking assays in PC3 cells; type: cell-based, human; settings: 37 °C
Experimental: The time-dependent accumulation of ^111In-conjugates in PC3 cells was evaluated according to a previously described procedure. Briefly, PC3 cells were incubated at 37 °C for 5 min to 4 h with about 7.4 kBq of the tested radioconjugates. To assess the surface binding, the cells were treated twice with glycine buffer (50 mM glycine-HCl/100 mM NaCl, pH 2.8). Then, the cells were lysed with NaOH 1 M (internalized radioconjugate). The activity in both cell surface-bound and internalized fractions was measured in a γ-counter and reported as a percentage of the total applied radioactivity. The total cellular uptake was calculated by the addition of the activities recovered from the surface binding and internalized fractions. Assays for each time point were performed in quadruplicate, and data were presented as average ± SD of typically three independent experiments.
To assess the specific GRPR-mediated cellular uptake and internalization of radioconjugates (receptor blocking studies), a similar study was performed in which cells were incubated with the [^111In]In-DOTA-Tz-TCO-PEG4-AR for 1, 2 and 4 h, with or without the GRPR agonist Tyr4-Bombesin (0.25 µg/0.5 mL/well).

[3] = Biodistribution of 111In-radioconjugates/radiocomplex in PC3 xenografts-bearing mice; type: in vivo, Balb/c-male nude mice; settings: male, Balb/c nude, mouse, iv, total radioactivity; for tissue uptake at […]: 15 min p.i.
From the text: (§1) Blood samples were taken by cardiac puncture at sacrifice.

[4] = test system: PC3 xenografts-bearing mice; test: as above; type: in vivo, Balb/c-male nude mice
From the text: as §1

[5] = in vitro; settings: human, human serum
Experimental: The radiochemical stability of the radioconjugates was evaluated in vitro by the incubation of the four radioconjugates at 37 °C in PBS, in cell culture media (CCM) and human serum (HS) for 24 h, followed by HPLC analysis.

[6] = test system: GRPR; set-up: method as in PMID 22080443, PMID 9437737; settings: literature value for reference peptide; ref [32],[39]; cited from earlier work
[7] = 15 min p.i., listed as [111In]In-DOTA-Tz-TCO-PEG4-AR
[8] = 1 h p.i., blocking (excess of agonist)

In the case of `CC(C)C[C@H](NC(=O)C[C@H](O)[C@H](CC(C)C)NC(=O)[C@H](Cc1c[nH]cn1)NC(=O)CNC(=O)[C@@H](NC(=O)[C@H](C)NC(=O)[C@H](Cc1c[nH]c2ccccc12)NC(=O)[C@H](CCC(N)=O)NC(=O)[C@@H](Cc1ccccc1)NC(=O)CCOCCOCCOCCOCCNC(=O)OC1CCCc2c(cnnc2-c2ccc(CNC(=O)CN3CCN(CC(=O)O)CCN(CC(=O)O)CCN(CC(=O)O)CC3)cc2)CC1)C(C)C)C(N)=O` (stereo partly drawn) [[^111In]In-DOTA-Tz-TCO-PEG4-AR, metal not drawn], the logP [1] is reported as -1.2 ± 0.04, the “Distribution of cell-associated activity (surface-bound vs internalized)” value [2] is reported as “mainly bound to the cell membrane” and the Cellular uptake ([2]; start of the assay) is reported as 17 % of the total activity applied per million cells. It also gave a tissue uptake at 1 h ([3]; heart, 1 h p.i., read-out: Heart uptake) of 0.815 %ID/g, a dose excreted at 1 h ([3]; in vivo, 1 h p.i., read-out: Excretion) of 74.8% and a dose excreted at 24 h ([3]; in vivo, 24 h post-injection, mainly through the renal system, read-out: Injected activity excreted) of 97%. For the same compound, the tissue uptake at 1 h ([3]; intestine, 1 h p.i., read-out: Intestine uptake) was 1.85 %ID/g, the tissue uptake at […] ([3]; kidneys, read-out: Kidneys uptake) was 15.4 ± 6.2 %ID/g and the tissue uptake at 1 h ([3]; kidneys, 1 h p.i., read-out: Kidneys uptake) was 5.33 %ID/g. It also gave a tissue uptake at […] ([3]; liver, read-out: Liver uptake) of 6 %ID/g, a tissue uptake at 1 h ([3]; lungs, 1 h p.i., read-out: Lungs uptake) of 1.61 %ID/g and a tissue uptake at 1 h ([3]; muscle, 1 h p.i., read-out: Muscle uptake) of 0.875 %ID/g. The tissue uptake at 2 h ([3]; pancreas, 2 h p.i.) was 11 %ID/g, the tissue uptake at 1 h ([3]; pancreas, with excess of agonist (receptor blocking), 1 h p.i., blocking (excess of agonist), read-out: Pancreas uptake) was 1.6 ± 0.6 %ID/g and the tissue uptake at 1 h ([3]; stomach, 1 h p.i., read-out: Stomach uptake) was 2.62 %ID/g. The tissue uptake at 1 h ([3]; tumor (PC3 xenograft), 1 h p.i., read-out: Tumor uptake) was 9.57 %ID/g, the tissue uptake at 1 h ([3]; tumor (PC3 xenograft), with excess of agonist (receptor blocking), 1 h p.i., blocking (excess of agonist), read-out: Tumor uptake) was 4.4 ± 2 %ID/g and the Blood uptake ([4]; 15 min p.i.) was 6. 7 % I.D./g. For the same compound, the Bone uptake ([4]; 15 min p.i.) was 7. 2 % I.D./g, the Excretion ([4]; 15 min p.i.) was 17. % I.D and the Heart uptake ([4]; 15 min p.i.) was 5. 4 % I.D./g. The Intestine uptake ([4]; 15 min p.i.) was 3. 6 % I.D./g, the Lungs uptake ([4]; 15 min p.i.) was 9. 6 % I.D./g and the Muscle uptake ([4]; 15 min p.i.) was 3. 8 % I.D./g. The Pancreas uptake ([4]; 15 min p.i.) was 25.2 ± 3 % I.D./g and 25.2 ± 0.2 % I.D./g, the Spleen uptake ([4]; 15 min p.i.) was 3. 6 % I.D./g and the Stomach uptake ([4]; 15 min p.i.) was 10. 6 % I.D./g. For the same compound, the Tumor uptake ([4]; 15 min p.i.) was 8.4 ± 0.5 % I.D./g, the Kidneys uptake [4, 7] was 15. 4 % I.D./g and the Pancreas uptake [4, 7] was 25. 2 % I.D./g. For the same compound, the Tumor uptake [4, 7] was 8. 4 % I.D./g, the Blood uptake ([4]; 1 h p.i.) was 2. 62 % I.D./g and the Bone uptake ([4]; 1 h p.i.) was 0. 85 % I.D./g. For the same compound, the Liver uptake ([4]; 1 h p.i.) was 1. 15 % I.D./g, the Pancreas uptake ([4]; 1 h p.i.) was 13.9 ± 1.6 % I.D./g and the Spleen uptake ([4]; 1 h p.i.) was 1. 32 % I.D./g. The Tumor uptake ([4]; 1 h p.i.) was 9.6 ± 1.7 % I.D./g, the Blood uptake [4, 8] was 3. 08 % I.D./g and the Bone uptake [4, 8] was 1. 395 % I.D./g. For the same compound, the Excretion [4, 8] was 51. % I.D, the Heart uptake [4, 8] was 1. 11 % I.D./g and the Intestine uptake [4, 8] was 0. 995 % I.D./g. For the same compound, the Kidneys uptake [4, 8] was 8. 435 % I.D./g, the Liver uptake [4, 8] was 1. 63 % I.D./g and the Lungs uptake [4, 8] was 2. 135 % I.D./g. The Muscle uptake [4, 8] was 1. 755 % I.D./g, the Pancreas uptake [4, 8] was 1. 685 % I.D./g and the Spleen uptake [4, 8] was 0. 83 % I.D./g. The Stomach uptake [4, 8] was 1. 16 % I.D./g, the Tumor uptake [4, 8] was 4. 445 % I.D./g and the Pancreas uptake ([4]; 1 h p.i., listed as [111In]In-DOTA-Tz-TCO-PEG4-AR) was 13. 875 % I.D./g. For the same compound, the Blood uptake ([4]; 2 h p.i.) was 1. 7 % I.D./g, the Bone uptake ([4]; 2 h p.i.) was 0. 7 % I.D./g and the Excretion ([4]; 2 h p.i.) was 84. % I.D. The Heart uptake ([4]; 2 h p.i.) was 0. 5 % I.D./g, the Intestine uptake ([4]; 2 h p.i.) was 1. 1 % I.D./g and the Kidneys uptake ([4]; 2 h p.i.) was 5. 4 % I.D./g. For the same compound, the Liver uptake ([4]; 2 h p.i.) was 1. 7 % I.D./g, the Lungs uptake ([4]; 2 h p.i.) was 1. 1 % I.D./g and the Muscle uptake ([4]; 2 h p.i.) was 0. 6 % I.D./g. The Pancreas uptake ([4]; 2 h p.i.) was 11 ± 2.5 % I.D./g, the Spleen uptake ([4]; 2 h p.i.) was 0. 6 % I.D./g and the Stomach uptake ([4]; 2 h p.i.) was 2. 1 % I.D./g. The Tumor uptake ([4]; 2 h p.i.) was 13.1 ± 1.7 % I.D./g, the Tumor uptake ([4]; 2 h p.i., listed as [111In]In-DOTA-Tz-TCO-PEG4-AR) was 13. 1 % I.D./g and the Blood uptake ([4]; 24 h p.i.) was 0. 16 % I.D./g. For the same compound, the Bone uptake ([4]; 24 h p.i.) was 0. 038 % I.D./g, the Excretion ([4]; 24 h p.i.) was 96. % I.D and the Heart uptake ([4]; 24 h p.i.) was 0. 065 % I.D./g. For the same compound, the Intestine uptake ([4]; 24 h p.i.) was 0. 12 % I.D./g, the Kidneys uptake ([4]; 24 h p.i.) was 1. 17 % I.D./g and the Liver uptake ([4]; 24 h p.i.) was 0. 21 % I.D./g. The Lungs uptake ([4]; 24 h p.i.) was 0. 12 % I.D./g, the Muscle uptake ([4]; 24 h p.i.) was 0. 034 % I.D./g and the Pancreas uptake ([4]; 24 h p.i.) was 0. 14 % I.D./g. For the same compound, the Spleen uptake ([4]; 24 h p.i.) was 0. 065 % I.D./g, the Stomach uptake ([4]; 24 h p.i.) was 0. 09 % I.D./g and the Tumor uptake ([4]; 24 h p.i.) was 0. 76 % I.D./g.
In the case of `CC(C)C[C@H](NC(=O)C[C@H](O)[C@H](CC(C)C)NC(=O)[C@H](Cc1c[nH]cn1)NC(=O)CNC(=O)[C@@H](NC(=O)[C@H](C)NC(=O)[C@H](Cc1c[nH]c2ccccc12)NC(=O)[C@H](CCC(N)=O)NC(=O)[C@@H](Cc1ccccc1)NC(=O)CCOCCOCCOCCOCCNC(=O)OC1CCCc2c(cnnc2-c2ccc(CNC(=O)CCC(C(=O)O)N3CCN(CC(=O)O)CCN(CC(=O)O)CCN(CC(=O)O)CC3)cc2)CC1)C(C)C)C(N)=O` (stereo partly drawn) [[^111In]In-DOTAGA-Tz-TCO-PEG4-AR, metal not drawn], the logP [1] is reported as -1.18 ± 0.05 and the remaining at 24 h [5] is reported as about 70%.
For “D-Phe-Gln-Trp-Ala-Val-Gly-His-Sta-Leu-NH2 [AR]”, the IC50 [6] is given as 2.9 ± 0.6 nM.
